# Test results from paper PMC8089094, “Mispair-bound human MutS–MutL complex triggers DNA incisions and activates mismatch repair” (Cell Research, 2021).
# B1: human MutLα (MLH1·PMS2 heterodimer), wild type (complex)
# chain 1: MSFVAGVIRRLDETVVNRIAAGEVIQRPANAIKEMIENCLDAKSTSIQVIVKEGGLKLIQIQDNGTGIRKEDLDIVCERFTTSKLQSFEDLASISTYGFRGEALASISHVAHVTITTKTADGKCAYRASYSDGKLKAPPKPCAGNQGTQITVEDLFYNIATRRKALKNPSEEYGKILEVVGRYSVHNAGISFSVKKQGETVADVRTLPNASTVDNIRSIFGNAVSRELIEIGCEDKTLAFKMNGYISNANYSVKKCIFLLFINHRLVESTSLRKAIETVYAAYLPKNTHPFLYLSLEISPQNVDVNVHPTKHEVHFLHEESILERVQQHIESKLLGSNSSRMYFTQTLLPGLAGPSGEMVKSTTSLTSSSTSGSSDKVYAHQMVRTDSREQKLDAFLQPLSKPLSSQPQAIVTEDKTDISSGRARQQDEEMLELPAPAEVAAKNQSLEGDTTKGTSEMSEKRGPTSSNPRKRHREDSDVEMVEDDSRKEMTAACTPRRRIINLTSVLSLQEEINEQGHEVLREMLHNHSFVGCVNPQWALAQHQTKLYLLNTTKLSEELFYQILIYDFANFGVLRLSEPAPLFDLAMLALDSPESGWTEEDGPKEGLAEYIVEFLKKKAEMLADYFSLEIDEEGNLIGLPLLIDNYVPPLEGLPIFILRLATEVNWDEEKECFESLSKECAMFYSIRKQYISEESTLSGQQSEVPGSIPNSWKWTVEHIVYKALRSHILPPKHFTEDGNILQLANLPDLYKVFERC
# chain 2: MERAESSSTEPAKAIKPIDRKSVHQICSGQVVLSLSTAVKELVENSLDAGATNIDLKLKDYGVDLIEVSDNGCGVEEENFEGLTLKHHTSKIQEFADLTQVETFGFRGEALSSLCALSDVTISTCHASAKVGTRLMFDHNGKIIQKTPYPRPRGTTVSVQQLFSTLPVRHKEFQRNIKKEYAKMVQVLHAYCIISAGIRVSCTNQLGQGKRQPVVCTGGSPSIKENIGSVFGQKQLQSLIPFVQLPPSDSVCEEYGLSCSDALHNLFYISGFISQCTHGVGRSSTDRQFFFINRRPCDPAKVCRLVNEVYHMYNRHQYPFVVLNISVDSECVDINVTPDKRQILLQEEKLLLAVLKTSLIGMFDSDVNKLNVSQQPLLDVEGNLIKMHAADLEKPMVEKQDQSPSLRTGEEKKDVSISRLREAFSLRHTTENKPHSPKTPEPRRSPLGQKRGMLSSSTSGAISDKGVLRPQKEAVSSSHGPSDPTDRAEVEKDSGHGSTSVDSEGFSIPDTGSHCSSEYAASSPGDRGSQEHVDSQEKAPKTDDSFSDVDCHSNQEDTGCKFRVLPQPTNLATPNTKRFKKEEILSSSDICQKLVNTQDMSASQVDVAVKINKKVVPLDFSMSSLAKRIKQLHHEAQQSEGEQNYRKFRAKICPGENQAAEDELRKEISKTMFAEMEIIGQFNLGFIITKLNEDIFIVDQHATDEKYNFEMLQQHTVLQGQRLIAPQTLNLTAVNEAVLIENLEIFRKNGFDFVIDENAPVTERAKLISLPTSKNWTFGPQDVDELIFMLSDSPGVMCRPSRVKQMFASRACRKSVMIGTALNTSEMKKLITHMGEMDHPWNCPHGRPTMRHIANLGVISQN
# notes: MLH1 subunit of human MutLα; PMS2 subunit of human MutLα; also called WT MutLα; source: insect cells, purified to homogeneity
# Legend:
# LacI = assay: EMSA; settings: IPTG; EMSA: 10 mM HEPES pH 7.5, 110 mM KCl, 5 mM MgCl2, 1 mM DTT, 200 ug/mL BSA, 1 pmol cold homoduplex, +/- 2 mM ATP, 20 min on ice; sucrose gradient: 10 mM …
# [1] = molecular target: T1, human MutSα (MSH2·MSH6 heterodimer), wild type (human, UniProt P43246 1-934; P52701 1-1360); assay: native gel or EMSA; with ATP (2 mM); 0.1 pmol 32P-labeled 100-bp duplex with a G–T mismatch, 2 pmol MutSα or MutLα; more slowly migrating MutSα–MutLα–DNA complex; 10 mM HEPES pH 7.5, 5 mM MgCl2, 1 mM DTT, 110 mM KCl, 20 min on ice; 4% non-denaturing polyacrylamide; settings: both partners purified
# T1 construct: MSH2 subunit of human MutSα; MSH6 subunit of human MutSα; also called WT MutSα; MSH2WT·MSH6WT; source: insect cells, purified to homogeneity
# T1 sequence (P43246 whole entry, chain 1 of 2): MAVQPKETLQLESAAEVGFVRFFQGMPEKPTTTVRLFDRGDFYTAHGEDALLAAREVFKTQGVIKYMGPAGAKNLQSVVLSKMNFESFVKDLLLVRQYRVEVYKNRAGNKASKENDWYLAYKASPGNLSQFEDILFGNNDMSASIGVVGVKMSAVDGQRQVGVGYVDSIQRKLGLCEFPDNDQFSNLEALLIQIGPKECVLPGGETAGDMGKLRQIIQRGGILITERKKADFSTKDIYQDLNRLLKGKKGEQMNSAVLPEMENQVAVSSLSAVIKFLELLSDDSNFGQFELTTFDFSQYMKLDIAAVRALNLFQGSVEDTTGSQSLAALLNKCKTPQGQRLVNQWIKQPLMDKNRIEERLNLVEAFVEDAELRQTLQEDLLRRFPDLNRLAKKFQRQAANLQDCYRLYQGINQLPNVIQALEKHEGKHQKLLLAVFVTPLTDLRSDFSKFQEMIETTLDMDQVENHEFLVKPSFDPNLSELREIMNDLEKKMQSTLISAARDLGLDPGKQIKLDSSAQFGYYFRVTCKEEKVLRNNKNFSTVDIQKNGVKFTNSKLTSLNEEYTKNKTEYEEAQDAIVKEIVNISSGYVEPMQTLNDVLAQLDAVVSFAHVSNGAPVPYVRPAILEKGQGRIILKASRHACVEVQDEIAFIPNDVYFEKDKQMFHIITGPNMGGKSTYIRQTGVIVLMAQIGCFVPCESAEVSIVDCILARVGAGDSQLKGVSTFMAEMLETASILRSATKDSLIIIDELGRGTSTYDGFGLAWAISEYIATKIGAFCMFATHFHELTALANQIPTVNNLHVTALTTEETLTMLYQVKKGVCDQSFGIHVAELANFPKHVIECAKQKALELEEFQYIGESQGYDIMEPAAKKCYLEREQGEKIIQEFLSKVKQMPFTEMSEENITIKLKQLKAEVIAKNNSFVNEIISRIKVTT
# T1 sequence (P52701 whole entry, chain 2 of 2): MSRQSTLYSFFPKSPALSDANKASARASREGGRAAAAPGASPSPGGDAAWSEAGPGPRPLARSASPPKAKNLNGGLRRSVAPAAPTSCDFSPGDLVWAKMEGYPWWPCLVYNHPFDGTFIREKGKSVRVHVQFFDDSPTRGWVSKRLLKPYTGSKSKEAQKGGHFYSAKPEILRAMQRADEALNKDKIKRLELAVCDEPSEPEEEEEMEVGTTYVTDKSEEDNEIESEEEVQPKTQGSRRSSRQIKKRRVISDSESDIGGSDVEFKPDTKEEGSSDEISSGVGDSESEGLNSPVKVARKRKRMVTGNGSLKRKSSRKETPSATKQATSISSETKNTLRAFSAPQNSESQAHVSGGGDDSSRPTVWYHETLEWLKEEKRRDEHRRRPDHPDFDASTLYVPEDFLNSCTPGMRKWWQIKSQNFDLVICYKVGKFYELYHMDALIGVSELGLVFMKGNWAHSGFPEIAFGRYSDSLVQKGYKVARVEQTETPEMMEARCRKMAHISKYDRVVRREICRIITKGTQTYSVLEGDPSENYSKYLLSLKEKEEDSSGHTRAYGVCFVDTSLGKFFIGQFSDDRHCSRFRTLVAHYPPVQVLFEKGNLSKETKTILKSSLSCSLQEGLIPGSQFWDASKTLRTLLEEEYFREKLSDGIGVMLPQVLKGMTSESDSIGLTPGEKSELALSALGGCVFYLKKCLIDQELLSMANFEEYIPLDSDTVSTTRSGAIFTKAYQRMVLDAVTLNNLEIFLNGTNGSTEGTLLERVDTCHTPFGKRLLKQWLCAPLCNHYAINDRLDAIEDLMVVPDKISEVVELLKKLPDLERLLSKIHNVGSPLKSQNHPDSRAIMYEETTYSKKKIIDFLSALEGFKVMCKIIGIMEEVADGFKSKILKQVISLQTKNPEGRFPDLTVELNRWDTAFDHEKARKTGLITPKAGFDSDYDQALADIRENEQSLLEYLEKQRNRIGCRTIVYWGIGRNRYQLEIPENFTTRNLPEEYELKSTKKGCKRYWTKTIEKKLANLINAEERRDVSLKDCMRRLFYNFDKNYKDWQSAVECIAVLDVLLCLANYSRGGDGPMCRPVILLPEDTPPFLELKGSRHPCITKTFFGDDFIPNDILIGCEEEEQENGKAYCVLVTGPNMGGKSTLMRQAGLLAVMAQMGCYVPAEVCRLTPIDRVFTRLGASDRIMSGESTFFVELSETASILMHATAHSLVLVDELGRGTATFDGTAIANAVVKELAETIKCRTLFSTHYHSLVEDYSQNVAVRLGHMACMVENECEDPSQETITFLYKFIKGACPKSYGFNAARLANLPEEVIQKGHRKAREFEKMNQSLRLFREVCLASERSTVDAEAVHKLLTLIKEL
Molecule,binding signal (% of binding released) (LacI),stoichiometry N [1]
282-bp G-T heteroduplex with LOS I and LOS II,> 70,
B1,,> 1 molecule of MutLα in the MutSα–MutLα complex
